Measurements taken from US8334260B2, “sFRP and peptide motifs that interact with sFRP and methods of their use” (The United States of America as represented by the …, priority 2001, dated 2012).

T1: RANKL (Homo sapiens, UniProt O14788)
T1 construct: For ELISA assays, recombinant soluble RANKL and TRAIL, and antibodies directed against these proteins were obtained from PeproTech; purchased PeproTech (Rocky Hill, N.J.)
T1 sequence (O14788 140-317): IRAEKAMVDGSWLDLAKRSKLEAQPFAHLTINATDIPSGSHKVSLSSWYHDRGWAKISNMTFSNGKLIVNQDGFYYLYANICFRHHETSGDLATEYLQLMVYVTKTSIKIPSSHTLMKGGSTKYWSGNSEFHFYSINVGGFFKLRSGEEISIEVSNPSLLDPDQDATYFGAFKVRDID

T2: RANKL (Mus musculus, UniProt O35235)
T2 construct: For ELISA assays, recombinant soluble RANKL and TRAIL, and antibodies directed against these proteins were obtained from PeproTech; purchased PeproTech (Rocky Hill, N.J.)
T2 sequence (O35235 158-316): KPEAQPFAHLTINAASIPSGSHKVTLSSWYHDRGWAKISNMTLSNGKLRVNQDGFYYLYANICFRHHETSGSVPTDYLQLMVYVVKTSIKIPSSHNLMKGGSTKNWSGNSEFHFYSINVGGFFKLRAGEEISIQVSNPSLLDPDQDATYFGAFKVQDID


How the values were obtained:
RANKL [1] = target: T1, RANKL; test: ELISA of soluble RANKL binding to wells coated with sFRP-1, sFRP-1 derivatives or sFRP-2; conditions: ELISA, coated wells versus BSA
Protocol: (§1) ELISA experiments were generally performed as previously described (Uren et al., J. Biol. Chem. 275:4374-4382, 2000), with modifications depending on the sFRP binding partner to be tested. Typically, wells were coated with 0.5 or 1 μg of sFRP-1, blocked with BSA (0.2%, 1%, or 4%) and then incubated with putative binding partner overnight at room temperature. When investigating the binding of peptide/AP chimeras, after aspiration of bacterial broths, wells were washed and incubated with p-nitrophenolphosphate (pNPP). Color development was determined at 405 nm with an ELISA reader. For competition experiments, soluble peptides were preincubated with peptide/AP chimeras in bacterial broth for 30 min at room temperature prior to transfer into ELISA wells coated with sFRP-1 or BSA. When testing RANKL binding to sFRP-1, serial dilutions of soluble RANKL were assayed in replicate. Following overnight incubation at room temperature, RANKL solutions were aspirated and bound RANKL was detected by sequential incubations with primary antibody to RANKL, secondary antibody coupled with AP and pNPP. Similar experimental designs were employed when other TNFα family members were examined for binding to sFRPs, and when sFRP-1 derivatives or sFRP-2 were the binding targets for RANKL.
(§2) The possibility that sFRP-1 (SEQ ID NO: 3) and RANKL interact directly with each other was tested using an ELISA assay. […] RANKL was then incubated in these wells and in adjacent wells that had only been treated with BSA.

RANKL [2] = target: T2, RANKL; test: as above; conditions: RANKL variant with amino-terminal sequence beginning with residue 158
Protocol: as §1, §2

[3] = tested on: co-cultures of primary osteoblasts and bone marrow cells; test: Osteoclastogenesis co-culture of primary osteoblasts and bone marrow cells (TRAP+ cells); type: cell-based, mouse; conditions: vitamin D3 (10^-8 M) and PGE2 (10^-7 M)
Protocol: Osteoblastic cells were prepared from the calvaria of newborn mice by digestion with 0.1% collagenase (Worthington Biochemical Co., Freefold, […]) and 0.2% dispase (Godo Shusei, Tokyo, Japan). Bone marrow and spleen cells were obtained from adult and from newborn mice, respectively (Udagawa et al., J. Exp. Med. 182: 1461-1468, 1995). Osteoblastic cells were co-cultured with bone marrow or spleen cells as described previously (Udagawa et al., J. Exp. Med. 182: 1461-1468, 1995). In short, primary osteoblastic cells (2×10^4/well) and nucleated spleen cells (1×10^6/well) or marrow cells (5×10^5/well) were co-cultured in 48-well plates (Corning Glass Inc., Corning, N.Y.) with 0.4 mL of α-MEM (GIBCO/BRL, Grand Island, N.Y.) containing 10% fetal bovine serum (Cytosystems, Castle Hill, NSW, Australia) in the presence of test chemicals. Cultures were incubated in quadruplicate and cells were replenished on day 3 with fresh medium. Osteoclast formation was evaluated after culturing for 6-7 days. Adherent cells were fixed and stained for tartrate-resistant acid phosphatase (TRAP), and the number of TRAP-positive osteoclasts was scored as described (Udagawa et al., J. Exp. Med. 182: 1461-1468, 1995). For TRAP staining, adherent cells were fixed with 4% formaldehyde in PBS for 3 minutes. After treatment with ethanol-acetone (50/50, vol/vol) for 1 minute, the well surface was air dried and incubated for 10 minutes at room temperature in an acetate buffer (0.1 M sodium acetate, pH 5.0) containing 0.01% naphthol AS-MX phosphate (Sigma) as a substrate and 0.03% red violet LB salt (Sigma) as a stain for the reaction product in the presence of 50 mM sodium tartrate. TRAP-positive cells appeared dark red, and those with three or more nuclei were scored as multinucleated and considered as osteoclasts. […] CTR expression was determined either by autoradiography with ^125I-salmon calcitonin or by immunohistochemical localization using an array of antibodies we have developed as described by Quinn et al., Bone 25:1-8, 1999.

RAW264.7 cells [4] = test: RANKL-independent (TNFα-dependent) osteoclast formation in RAW264.7+TNFα+TGFβ; type: cell-based
Protocol: The effect of sFRP-1 was assessed upon a RANKL-independent method of osteoclast formation using the monocyte/macrophage cell line RAW264.7 (Quinn et al., Journal of Bone and Mineral Research. 16, 1787-1794, 2001) and was compared with that of osteoprotegerin (FIG. 14).
(§3) The effect of bacterially expressed CRD was assessed in three different cell culture models of osteoclast formation. These were: (1) bone marrow cells+RANKL+M-CSF, (2) the macrophage/monocyte cell line RAW264.7+RANKL, and (3) RAW264.7+TNFα+TGFβ (Horwood et al., Journal of Immunology 166:4915-4921, 2001; Quinn et al., Journal of Bone and Mineral Research. 16, 1787-1794, 2001).

TNFα = TNFα (Homo sapiens, UniProt P01375); test: ELISA of TNFα binding to sFRP-1; conditions: ELISA format
Protocol: as §1, with “RANKL. […]” for “RANKL.”

RAW264.7 cells [5] = test: RANKL-induced osteoclast formation in RAW264.7 cells; type: cell-based; conditions: RAW264.7+RANKL
Protocol: In some instances, experiments were performed either with adult mouse spleen cells or with RAW264.7 cells treated with M-CSF and RANKL as described in Quinn et al., Endocrinology 139:4424-4427, 1998. Where indicated, these assays were conducted in the presence or absence of splenic T cells. T cell fractions were prepared as described in Horwood et al., Journal of Clinical Investigation 101:595-603, 1998.
as §3

bone marrow cells = test: Osteoclast formation in bone marrow cells+RANKL+M-CSF; type: cell-based
Protocol: as §3

TRAIL = target: T3, TRAIL (Homo sapiens, UniProt P50591); test: ELISA of TRAIL binding to sFRP-2; conditions: ELISA format
T3 construct: For ELISA assays, recombinant soluble RANKL and TRAIL, and antibodies directed against these proteins were obtained from PeproTech; purchased PeproTech (Rocky Hill, N.J.)
Protocol: as §1, with “RANKL. […]” for “RANKL.”

T3 sequence (P50591 39-281 limits assumed, species assumed): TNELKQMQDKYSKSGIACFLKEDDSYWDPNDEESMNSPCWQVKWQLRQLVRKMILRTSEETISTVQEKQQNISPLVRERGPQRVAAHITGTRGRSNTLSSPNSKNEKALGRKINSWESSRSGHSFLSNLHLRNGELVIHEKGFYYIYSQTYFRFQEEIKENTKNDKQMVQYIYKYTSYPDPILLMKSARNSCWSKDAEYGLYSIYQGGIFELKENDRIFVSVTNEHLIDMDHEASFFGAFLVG
TNFα, sequence (P01375 77-233 limits assumed, species assumed): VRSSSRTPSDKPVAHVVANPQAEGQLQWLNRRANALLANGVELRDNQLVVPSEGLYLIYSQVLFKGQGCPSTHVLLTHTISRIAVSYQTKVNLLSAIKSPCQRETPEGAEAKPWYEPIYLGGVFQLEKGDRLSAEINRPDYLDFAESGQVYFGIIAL

Row | Molecule | binding to RANKL (RANKL [1]) | binding to a derivative of RANKL lacking the A-C2 motif (RANKL [2]) | reduction of the number of multinucleated TRAP+ cells ([3]; 300 ng/mL) | reduction of the number of multinucleated TRAP+ cells ([3]; 1.6 ug/mL) | effect on osteoclast formation [3] | effect on TNFα-dependent osteoclast formation (RAW264.7 cells [4]; present during the first three days of culture) | binding to TNFα (TNFα) | effect on osteoclast formation (RAW264.7 cells [5]) | effect on osteoclast formation (RAW264.7 cells [4]; RAW264.7+TNFα+TGFβ, RANKL-independent) | effect on osteoclast formation (bone marrow cells) | binding to TRAIL (TRAIL)
1 | sFRP-1: recombinant human secreted Frizzled-related protein-1 (protein, listed as Homo sapiens) MGIGRTEGGRRGAALGVLLALGGASGRGLGSEYDYVSFQSDIGPYQSGRFYTKPPQCVDIPADLRLCHNVGYKKMVLPNLLEHETMAEVKQQASSWVPLLNKNCHAGTQVFLCSLFAPVCLDRPIYPCRWLCEAVRDSCEPVMQFFGFYWPEMLKCDKFPEGDVCIAMTPPNATEASKPQGTTVCPPCDNELKSEAIIEHLCASEFALRMKIKEVKKENGDKKIVPKKKKPLKLGPIKKKDLKKLVLYLKNGADCPCHQLDNLSHHFLIMGRKVKSQYLLTAIHKWDKKNKEFKNFMKKMKNHECPTFQSVFK | bound specifically | observed binding | 50% | 95% | dose-dependent inhibitory activity | inhibited | can bind | – | – | – | –
2 | bacterially expressed CRD: cysteine-rich domain of sFRP-1, residues 38-166, expressed in bacteria (protein) FQSDIGPYQSGRFYTKPPQCVDIPADLRLCHNVGYKKMVLPNLLEHETMAEVKQQASSWVPLLNKNCHAGTQVFLCSLFAPVCLDRPIYPCRWLCEAVRDSCEPVMQFFGFYWPEMLKCDKFPEGDVCI | strong | – | – | – | – | – | – | mimicked the action of full-length sFRP-1 and with similar potency | mimicked the action of full-length sFRP-1 and with similar potency | mimicked the action of full-length sFRP-1 and with similar potency | –
3 | sFRP-2: recombinant mouse sFRP-2 purified from transfected MDCK cells (protein) LFLFGQPDFSYKRSNCKPIPANLQLCHGIEYQNMRLPNLLGHETMKEVLEQAGAWIPLVMKQCHPDTKKFLCSLFAPVCLDDLDETIQPCHSLCVQVKDRCAPVMSAFGFPWPDMLECDRFPQDNDLCIPLASSDHLLPATEEAPKVCEACKTKNEDDNDIMETLCKNDFALKIKVKEITYINRDTKIILETKSKTIYKLNGVSERDLKKSVLWLKDSLQCTCEEMNDINAPYLVMGQKQGGELVITSVKRWQKGQREFKRISRSIRKLQC | can bind | – | – | – | – | – | – | – | – | – | can bind
